The values that follow come from the PETadex activity labels (doi:10.1042/bj3320075).

Common to all, as to details: pH 7.1; 25 °C
Substrate in series [1]: p-NP-C2
Substrate in series [2]: p-NP-C3
Substrate in series [3]: p-NP-C4
Substrate in series [4]: p-NP-C5
Substrate in series [5]: p-NP-C6
Substrate in series [6]: p-NP-C8

B1: unnamed (protein)
chain: MKPENKLPVLDLISAEMKTVVNTLQPDLPPWPATGTIAEQRQYYTLERRFWNAGAPEMATRAYMVPTKYGQVETRLFCPQPDSPATLFYLHGGGFILGNLDTHDRIMRLLASYSQCTVIGIDYTLSPEARFPQAIEEIVAACCYFHQQAEDYQINMSRIGFAGDSAGAMLALASALWLRDKQIDCGKVAGVLLWYGLYGLRDSVTRRLLGGVWDGLTQQDLQMYEEAYLSNDADRESPYYCLFNNDLTREVPPCFIAGAEFDPLLDDSRLLYQTLAAHQQPCEFKLYPGTLHAFLHYSRMMKTADEALRDGAQFFTAQL
B1: the Km in series [1] was determined as 1500 µM; in series [2], 700 µM; in series [3] it was 500 µM; in series [4] it was 260 µM; in series [5], 220 µM; in series [6], 160 µM. Also, the kcat in series [1] amounted to 30.8 s⁻¹; in series [2], 30.9 s⁻¹; in series [3] it was 30.9 s⁻¹; in series [4], 20.5 s⁻¹; in series [5], 6.2 s⁻¹; in series [6], 0.21 s⁻¹. In addition, the specificity constant (kcat/Km) is 20500 M⁻¹ s⁻¹ in series [1]; 44100 M⁻¹ s⁻¹ in series [2]; 61800 M⁻¹ s⁻¹ in series [3]; 78800 M⁻¹ s⁻¹ in series [4]; 28200 M⁻¹ s⁻¹ in series [5]; 1310 M⁻¹ s⁻¹ in series [6].
